Test results reported in article PMC11784016.

Columns and labels:
Assay in all cases: co-IP; 293T cells co-transfected; 400 ug of cell lysate on anti-HA magnetic beads with RNaseA (50 ug/mL), 2 h at 4 C; co-IP buffer 50 mM Tris-Cl pH 7.4, 1% Nonidet-P40, 10% glycerol, 150 mM NaCl; immunoblot with anti-HA and anti-V5 or anti-Flag; band intensities normalised to the immunoprecipitated protein, full-length protein set to 100%
[1] = molecular target: APOBEC3G with C-terminal triple HA tag (pcDNA3.1-APOBEC3G-HA) (human) (UniProt Q9HC16)
[2] = molecular target: APOBEC3G N-terminal domain, HA-tagged (pcDNA3.1 A3G NTD-HA) (human)
Sequence of APOBEC3G N-terminal domain, HA-tagged (pcDNA3.1 A3G NTD-HA) (human) (Q9HC16 whole entry, the tested form may be a part): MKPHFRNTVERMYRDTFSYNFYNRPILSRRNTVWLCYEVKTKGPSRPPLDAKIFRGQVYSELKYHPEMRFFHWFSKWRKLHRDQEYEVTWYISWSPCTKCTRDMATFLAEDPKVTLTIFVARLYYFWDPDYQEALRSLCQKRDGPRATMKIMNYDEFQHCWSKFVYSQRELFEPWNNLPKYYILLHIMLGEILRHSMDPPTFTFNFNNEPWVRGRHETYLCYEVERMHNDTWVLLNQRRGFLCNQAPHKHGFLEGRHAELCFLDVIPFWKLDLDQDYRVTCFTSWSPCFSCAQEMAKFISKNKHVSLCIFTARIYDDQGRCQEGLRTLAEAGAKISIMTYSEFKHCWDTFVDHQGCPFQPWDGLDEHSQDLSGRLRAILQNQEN

[3] = molecular target: APOBEC3F-HA (pcDNA3.1 A3F-HA) (human) (UniProt Q8IUX4)
[4] = molecular target: APOBEC3F N-terminal domain, HA-tagged (pcDNA3.1 A3F NTD-HA) (human)
Sequence of APOBEC3F N-terminal domain, HA-tagged (pcDNA3.1 A3F NTD-HA) (human) (Q8IUX4 whole entry, the tested form may be a part): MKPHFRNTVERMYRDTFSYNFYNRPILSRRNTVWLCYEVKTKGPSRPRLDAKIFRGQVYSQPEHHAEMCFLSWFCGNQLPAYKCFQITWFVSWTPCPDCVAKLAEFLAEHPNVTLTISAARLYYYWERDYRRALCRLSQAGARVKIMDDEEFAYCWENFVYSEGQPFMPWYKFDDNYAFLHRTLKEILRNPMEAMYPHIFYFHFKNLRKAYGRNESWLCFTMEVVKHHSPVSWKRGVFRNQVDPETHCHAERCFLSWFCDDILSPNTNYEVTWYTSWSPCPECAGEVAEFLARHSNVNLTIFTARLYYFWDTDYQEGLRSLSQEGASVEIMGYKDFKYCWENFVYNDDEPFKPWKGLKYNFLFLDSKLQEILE

APOBEC3F C-terminal domain, Flag-tagged (pcDNA3.1 A3F CTD-Flag) (domain or fragment)
fold less immunoprecipitated than full-length A3F and A3F NTD [1]: 17 fold

APOBEC3F N-terminal domain, Flag-tagged (pcDNA3.1 A3F NTD-Flag) (domain or fragment)
fold more immunoprecipitated than full-length A3F [2]: 7 fold

APOBEC3G C-terminal domain, Flag-tagged (A3G CTD-Flag) (domain or fragment)
fold by which full-length A3G in the co-IP exceeded this construct [3]: 42 fold

APOBEC3G N-terminal domain, Flag-tagged (pcDNA3.1 A3G NTD-Flag) (domain or fragment)
fold less in the co-IP than the full-length protein [4]: 1000 fold | fold by which full-length A3G in the co-IP exceeded this construct [3]: 6 fold
